System: MS2 coat protein
Assay: apparent KD of MS2 coat protein; higher = weaker reporter binding
Details: Eterna round: R107
Summary of the method: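 Designed RNA switches were transcribed on-chip from Illumina sequencing clusters. They were then titrated with SNAP-549-labelled MS2 coat protein (twofold steps, 0.7 or 1.5 nM to 3 µM; 0.8–1.5 h to 10–20 min per step) in 100 mM Tris-HCl pH 7.5, 80 mM KCl, 4 mM MgCl2, without or with constant ligand. Apparent KD is the per-design median of normalised cluster binding-curve fits.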

[1] = input ligand: theophylline 20 uM
[2] = input ligand: theophylline 2 mM
[3] = input ligand: tryptophan 2.4 mM

Row | Sequence | apparent KD of MS2 coat protein (input ligand: arginine 13.2 mM) | apparent KD of MS2 coat protein (input ligand: none) | apparent KD of MS2 coat protein [1] | apparent KD of MS2 coat protein [2] | apparent KD of MS2 coat protein [3]
1 | GUAAUAUACAGAAGGAGCGUGAUAGUGAGCUUGUACAACAUGAGGAUCACCCAUGUAUAAUCACAGGUAGGUCGCUGUAUAGGGU [Arg B SS t2] | 17 nM | 16.1 nM | 21.9 nM | 15.4 nM | 17.8 nM
2 | AUAAUGGGUAUCGGAUUAUCAUGGAAUGAUACCAGAUACUUAGAUAUCCCUUGGCAGCAUGAGGACAUGAGGAUCACCCAUGUAU [#03 Exclusion-TheophyllineA] | 31.3 nM |  | 56.9 nM |  | 54.9 nM
3 | ACGGAUCGGAAACGAUCCGCGGCGCGGGUGCGAGGACCGGUACGGCCGCCACUCGGGUAACAUGAGGAUCACCCAUGUCCGAUUU [ETA NP+V+V2 #12] | 65.7 nM |  | 101 nM | 129 nM | 
4 | UUGUUGUUUGGAAGGAGCGUGUAAGAUUAAGAACAUGAGGAUCACCCAUGUUUUAAGGGAACACAGGUAGGUCGCCGGGUGGUGG [11.R] | 15.5 nM | 13.9 nM | 19 nM | 14.8 nM | 15.6 nM
5 | GCCGCUGCCGCGGUGUGUGUGGGUGGGUGACGAGGACCGGUACGGCCGCCACUCGCGAUCGCACAUGAGGAUCACCCAUGUGUAA [Exclusion Tryp A GF20] | 13.3 nM |  | 20.7 nM | 19.6 nM | 
6 | GUACAUGAGGAUCACCCAUGUAUAGUUGAAGGAGCGACCGGAGGGUCAGGUAGGUCGCAGCACAUGGCGUCAACCCGUGUAUGCC [#1 Exclusion - Arginine A Attempt #25 (Inspired by Pi)] | 15.2 nM | 17.3 nM | 22.7 nM | 18.5 nM | 18.6 nM
7 | UUAUAUAUGCGAAGGAGCGGGAAAUAUAUAUAUAUAAUCCUAACAUGAGGAUCACCCAUGUCCCAGGUAGGUCGCGCAUAUAUAG [12.C] | 38 nM | 79 nM | 117 nM | 76.6 nM | 53.4 nM
8 | CACUUCAUGUGAGAUACCAGUGCCUUACAUGAGGAUCACCCAUGUCGUAAUGUGGAGAAGCACCCUUGGCAGCUCGCUUCGAGUG [Theo B SS t6] | 57.2 nM |  | 91.6 nM |  | 87.6 nM
9 | AGACAUGAGGAUCACCCAUGUAGCACGGAUACCAGAUCCAGAUUUAUCCCUUGGCAGCUGUGGUACAGCGUUGCAACGCUCCUAG [Exclusion - Theophylline A (Freestyle 16)] | 17.6 nM |  | 23.2 nM |  | 17.1 nM
10 | UAUCGUCAGACGGCCGCCACUAGAACAUGAGGAUCACCCAUGUACUAGUGGCAUACCUCAUGAACUAGGACCGGGUCUGACGAAU [(Trp1)-(Ms2)-(T)'-(M)'-(Trp2)_Design10] | 10.2 nM |  | 11.8 nM | 10.2 nM | 
11 | ACAUGGGUCUGAAGGAGCGCGAUAACAUGAGGAUCACCCAUGUAAAAUGGAACAUGAUAAUCGCAGGUAGGUCGCAGUAAAACCC [Same State Arginine B GF 11] | 133 nM | 303 nM | 344 nM | 704 nM | 365 nM
12 | GAUCUUGCGGGCGCCCGCAAGGUUGCGGAUACCAGCGAGAUUAAUCGCCCUUGGCAGCCGAACAUGAGGAUCACCCAUGUCGGAC [Same State - Theophylline A Attempt #2 (HarryS)] | 8.92 nM |  | 11.5 nM |  | 10.5 nM
13 | AUGCAUGUCAGAAGGAGCGUCAGUAACAUGAGGAUCACCCAUGUAACAUUGAAUUCGAUGAGACAGGUAGGUCGCUGAAUAGUAA [JR_SSArginiB_Sub019] | 26.4 nM | 30.6 nM | 37.7 nM | 35.9 nM | 27.8 nM
14 | GCCUAGCAGCGAAGGAGCGAGGUAAAUAAAUAAAUAAAUAACAAGAGGAUCACCCUUGUUCCUCAGGUAGGUCGCGCUGCUAGGC [SSAB Alternative Aptamer #1 NP+V+V2] | 16 nM | 17.5 nM | 22.7 nM | 18.9 nM | 17.9 nM
15 | UCACGACGGAUGGAUACCAGCGACAUGAGGAUCACCCAUGUAUGAGGAUCAGCCAUGUUAUGCCCUUGGCAGCCACGAAGGUCAU [YYYMULLIN] | 13.2 nM | 19 nM | 29.3 nM | 195 nM | 18.2 nM
16 | CCCACAAGCACGGCCGCCACUAUAUUAAUUACUGUCCUAGAACAUGAGGAUCACCCAUGUUAAUGUAGGACCGGGUGCGGGCCCG [theeternabot_exclusion_MS2_Trp_B_7] | 9.21 nM |  | 11.5 nM | 9.46 nM | 
17 | AGCCACUCGAGUGAUCCUCACGAGUGGCAACGAGGACCGGUACGGCCGCCACUCGAAUAAACAUGAGGAUCACCCAUGUAAUAAU [T''-M-T'-T-MS2] | 13.6 nM |  | 152 nM | 683 nM | 
18 | GCAUCCUAGUCGGCCGCCACUGGGUGUACCCAGUGCUGGUACAAACAUGAGGAUCACCCAUGUACCAGGACCGGGACUAGGAUGC [(Trp1)-(MT2)''-(T1)'-(MT2)'-(Ms2)-(Trp2)_Design4] | 10.8 nM | 15.6 nM | 21.2 nM | 16.7 nM | 13.8 nM
19 | AUCCAUAGCCGAAGGAGCGCAGUAGGAUGACAUGAGGAUCACCCAUGUGUGUGAUGUGGAUUGCAGGUAGGUCGCGGAGUGGGUU [Exclusion - Arginine B (Freestyle 7)] | 101 nM | 65.2 nM | 124 nM | 134 nM | 79.7 nM

Row | Sequence | apparent KD of MS2 coat protein (input ligand: arginine 13.2 mM) | apparent KD of MS2 coat protein (input ligand: none) | apparent KD of MS2 coat protein [1] | apparent KD of MS2 coat protein [2] | apparent KD of MS2 coat protein [3]
20 | UUUAAAAUCAGAAGGAGCGUGAUAAACAUGAGGAUCACCCAUGUCGAAAAUUUAAUAUAAUCACAGGUAGGUCGCUGUAAUAUUU [Same State - Ariginine B] | 14.2 nM | 14 nM | 18.6 nM | 16.5 nM | 14.2 nM
21 | UGUAUGGACUGAAGGAGCGGGUUGAUAUCAUGAGGAUCACCCAUGGAAAAGGCGAAAGCCGCCCAGGUAGGUCGCAGUCCAUACU | 25.1 nM |  | 38 nM | 37.5 nM | 26 nM
22 | GGUGGCGGGACUGAUACCAGCCACCACCGAUAGACCACAUGAGGAUCACCCAUGUUGGGUGGCCCUUGGCAGCAGUCUUGCUGCU [#1 Same State - Theophylline B Attempt #13 (HarryS)] | 64.1 nM |  | 409 nM |  | 586 nM
23 | AUUCAUAACUGAAGGAGCGUGAUAUAAAUUUUUACAUGAGGAUCACCCAUGUUUCAUAGAUCACAGGUAGGUCGCAGAUUCUCAU [JR_SSArginiB_Sub011] | 36.8 nM | 45.2 nM | 42.4 nM | 42.9 nM | 39.2 nM
24 | CCCAGUCAUAACAAAGCAAAUAUACUCGAAGGAGCGUCAUAGUAGGCAGGUAGGUCGCGAGACAUGAGGAUCACCCAUGUAGAGA [zrzmullin] | 20.1 nM | 31.8 nM | 33.2 nM | 39.2 nM | 35.1 nM
25 | CGAUAUGGGACGGCCGCCACUAUUAUGUAACAAAAUAAACAUGAGGAUCACCCAUGUACAUGGGAUAGGACCGGGUCCUAUAACG [#22 Same State - Tryptophan B] | 29.6 nM |  | 42.5 nM | 46.2 nM | 
26 | AAUGUGAAGGCGGCCGCCACUGAUAAUAGACAUGAGGAUCACCCAUGUAUAAAUCCUCAAUAAGACAGGACCGGGCCAACUACGU [Exclusion Tryptophan B GF 1] | 93 nM |  | 114 nM | 136 nM | 
27 | UUUUUCAUAGGUUAUAGUUUAGAAACUGAAGGAGCGUGGUAAUACACAGGUAGGUCGCAGAUUUUACAUGAGGAUCACCCAUGUU [JR_ExcArginiA_Sub014] | 22.1 nM | 23.2 nM | 27.3 nM | 27 nM | 25.6 nM
28 | AACAACAAGGGAAGGAGCGCGAAUAAUAAACAUGAGGAUCACCCAUGUAUCAUGGGCUUAACGCAGGUAGGUCGCCCACAAACAA [Exclusion Arginine B GF1] | 34 nM | 37.9 nM | 47.2 nM | 49.4 nM | 40.6 nM
29 | ACAUGAGGAUCACCCAUGUAAAUAACGGAAGGAGCGUGCAAAAGCACAGGUAGGUCGCCGAUAUAAAUAUUGGGUAAUAUAUUAU [ExyArgA#1] | 25 nM | 34.2 nM | 41.5 nM | 28.2 nM | 28 nM
30 | UGUAUGGACUGAAGGAGCGGGUAAUAAACCUGAGGAUCACCCAGGUAAUAGGCGAAAGCCACCCAGGUAGGUCGCAGUCCAUACU | 9.98 nM | 14.1 nM | 16.1 nM | 15.1 nM | 13.2 nM
31 | AAAAGAGGUGGAAGGAGCGGGAGACAUGAGGAUCACCCAUGUGAAGUAACGAAAGGUACAGCCCAGGUAGGUCGCCAUGUCGAAA [qxqamullin] | 20.6 nM | 31.7 nM | 73.5 nM | 40.4 nM | 32.8 nM
32 | AUAUAUACAUGAGGAUCACCCAUGUUAUUACGAGGACCGGUACGGCCGCCACUCGAUAGAGUAGAAGUAAAUUUUAAUUCAUGUA [JR_SSTryptoA_Sub007] | 14.6 nM |  | 15.7 nM | 14.4 nM | 
33 | AAGACAUGAGGAUCACCCAUGUCGUCUACACGAGGACCGGUACGGCCGCCACUCGUUUGCCAAUGAGCGCAUGCGGCCUGGGUAU [Exclusion Tryp A GF3] | 13.2 nM |  | 17.9 nM | 16.3 nM | 
34 | CUCCUGGGAGCGGCCGCCACUGGAGGCCUUGCGCGACAUGAGGAUCACCCAUGUUGUCCCGGCCUCAGGACCGGGUUCGCGCGAG [Same State - Tryptophan B Attempt #1] | 6.5 nM | 8.09 nM | 10.2 nM | 9.71 nM | 8.67 nM
35 | AAUGUAUGGCACAUGAGGAUCACCCAUGUGCGAGGACCGGUACGGCCGCCACUCGGUCCUGGGAUCUUAAUACUAUACAUUAAUG [XTryp A #19] | 10.3 nM |  | 15.1 nM | 13.9 nM | 
36 | CAAAAUUACGGAAGGAGCGCGGGUAGGCGGGUUGGAUCACAUGAGGAUCACCCAUGUAAAUCGCAGGUAGGUCGCCGUAAACGCG [Eslagele] | 45.6 nM | 28.8 nM | 43.9 nM | 76.9 nM | 36 nM
37 | UUAUUUAACGGAAGGAGCGCGGAAAUAAAAGUGGGUAAACAUGAGGAUCACCCAUGUAAACCGCAGGUAGGUCGCCGAUAUUUAU [AstrosEXyARgB#2] | 37 nM | 76.9 nM | 93.9 nM | 95.4 nM | 59.4 nM
38 | UUAUGCAGGUCGGCCGCCACUACACACAUGAGGAUCACCCAUGUAGUUACUGGGUGAAGUGGCAGUAGGACCGGGACCCGCACAC [Brourdmod22] | 226 nM | 485 nM | 561 nM | 715 nM | 258 nM

Reference: the supplement of paper PMC9170038
